Article PMC6472409, “Dishevelled-3 conformation dynamics analyzed by FRET-based biosensors reveals a key role of casein kinase 1” (Nature Communications, 2019)

B1: DVL3 S268A/S311A (protein, UniProt Q92997 1-716, looked up, variant S268A S311A)
Segment polarity protein …: MGETKIIYHLDGQETPYLVKLPLPAERVTLADFKGVLQRPSYKFFFKSMDDDFGVVKEEISDDNAKLPCFNGRVVSWLVSAEGSHPDPAPFCADNPSELPPPMERTGGIGDSRPPSFHPHAGGGSQENLDNDTETDSLVSAQRERPRRRDGPEHATRLNGTAKGERRREPGGYDSSSTLMSSELETTSFFDSDEDDSTSRFSSSTEQSSASRLMRRHKRRRRKQKVSRIERSSSFSSITDSTMSLNIITVTLNMEKYNFLGISIVGQANERGDGGIYIGSIMKGGAVAADGRIEPGDMLLQVNEINFENMANDDAVRVLREIVHKPGPITLTVAKCWDPSPRGCFTLPRSEPIRPIDPAAWVSHTAAMTGTFPAYGMSPSLSTITSTSSSITSSIPDTERLDDFHLSIHSDMAAIVKAMASPESGLEVRDRMWLKITIPNAFIGSDVVDWLYHNVEGFTDRREARKYASNLLKAGFIRHTVNKITFSEQCYYIFGDLCGNMANLSLHDHDGSSGASDQDTLAPLPHPGAAPWPMAFPYQYPPPPHPYNPHPGFPELGYSYGGGSASSQHSEGSRSSGSNRSGSDRRKEKDPKAGDSKSGGSGSESDHTTRSSLRGPRERAPSERSGPAASEHSHRSHHSLASSLRSHHTHPSYGPPGVPPLYGPPMLMMPPPPAAMGPPGAPPGRDLASVPPELTASRQSFRMAMGNPSEFFVDVM
B2: DVL3 S268E/S311E (protein, UniProt Q92997 1-716, looked up, variant S268E S311E)
Segment polarity protein …: MGETKIIYHLDGQETPYLVKLPLPAERVTLADFKGVLQRPSYKFFFKSMDDDFGVVKEEISDDNAKLPCFNGRVVSWLVSAEGSHPDPAPFCADNPSELPPPMERTGGIGDSRPPSFHPHAGGGSQENLDNDTETDSLVSAQRERPRRRDGPEHATRLNGTAKGERRREPGGYDSSSTLMSSELETTSFFDSDEDDSTSRFSSSTEQSSASRLMRRHKRRRRKQKVSRIERSSSFSSITDSTMSLNIITVTLNMEKYNFLGISIVGQENERGDGGIYIGSIMKGGAVAADGRIEPGDMLLQVNEINFENMENDDAVRVLREIVHKPGPITLTVAKCWDPSPRGCFTLPRSEPIRPIDPAAWVSHTAAMTGTFPAYGMSPSLSTITSTSSSITSSIPDTERLDDFHLSIHSDMAAIVKAMASPESGLEVRDRMWLKITIPNAFIGSDVVDWLYHNVEGFTDRREARKYASNLLKAGFIRHTVNKITFSEQCYYIFGDLCGNMANLSLHDHDGSSGASDQDTLAPLPHPGAAPWPMAFPYQYPPPPHPYNPHPGFPELGYSYGGGSASSQHSEGSRSSGSNRSGSDRRKEKDPKAGDSKSGGSGSESDHTTRSSLRGPRERAPSERSGPAASEHSHRSHHSLASSLRSHHTHPSYGPPGVPPLYGPPMLMMPPPPAAMGPPGAPPGRDLASVPPELTASRQSFRMAMGNPSEFFVDVM

Assays:
[1] = system: DVL3 membrane recruitment by FZD6 in HEK293 cells; experiment: FZD6-dependent membrane recruitment of DVL3, immunofluorescence; format: cell-based, human; parameters: key to Non-recruited (DVL3 membrane recruitment): number of cells out of 100 positive cells scored; settings: Fig 8c
Source text: First, we analyzed the preferred subcellular localization of DVL3 (as introduced in Fig. 2c)[10],[14]. […] Next, we investigated if DVL3 conformation correlates with the capacity of DVL3 to be recruited by FZD6, a key Wnt receptor, to the plasma membrane. For this purpose, we co-expressed FZD6 and analyzed membrane recruitment of DVL3 in FZD6-positive cells by immunofluorescence. Individual cells were categorized as: not recruited (Fig. 8b, no DVL3 in the membrane), partially recruited (clear membrane as well as cytoplasmic localization), and fully recruited (predominantly plasma membrane localization, Fig. 8c, left). […] In the last readout we analyzed the capacity of DVL3 to activate downstream Wnt/β-catenin pathway monitored by TopFlash reporter assay (Fig. 8d). […] On the other hand, under conditions that favor the open conformation both activation as well as inhibition of the Wnt/β-catenin pathway was evident.
For immunofluorescence, cells were seeded (40,000 per well) on 24-well plates with gelatin-coated coverslips and transfected, as indicated, with 0.1 μg of each corresponding plasmid (0.3 μg of mCherry-FZD6) for 6 h. For western blotting and Dual Luciferase TopFlash/Renilla Reporter Assay, cells were seeded (60,000 per well) directly on 24-well plates with 0.1 μg of each corresponding plasmid (if not indicated otherwise) for 6 h. For coimmunoprecipitation, cells were seeded (4.4 × 10^6) on 10-cm dishes and transfected with 1 μg of each corresponding plasmid. The next day after seeding, cells were transfected using polyethyleneimine (PEI) in a stoichiometry of 6 μl of PEI per 1 μg of DNA for 6 h and were harvested 24 h after transfection. The following plasmids used in HEK293 cells have been described previously: FLAG-DVL3 wt[47], CK1ϵ wt[48], mCherry-FZD6 (ref. [37]), and dominant-negative CK1ϵ P3 (ref. [33]). The ECFP-DVL3 wt plasmid was made by Gateway Technology (via LR recombination according to the manufacturer’s instructions; Thermo Fisher Scientific, #11791020) from the donor plasmid pDONR221 DVL3 (DNASU, #FLH178665.01x) and the destination plasmid pdECFP (LMBP, #4548). The HA-DVL3 wt plasmid was made by Gateway Technology from the donor plasmid pDONR221 DVL3 (DNASU, #FLH178665.01x) and the destination plasmid pcDNA3.1 N-term HA (gift from Erich Nigg).
Cells were seeded on gelatin-coated coverslips in 24-well plates and were transfected the next day. Cells were fixed 24 h later in fresh 4% paraformaldehyde, permeabilized with 0.5% Triton X-100, blocked with PBS/BSA/Triton/Azide buffer (PBTA) [3% (wt/vol) BSA, 0.25% Triton, 0.01% NaN3] for 1 h, and incubated overnight with primary antibodies (in dilution 1:500) in PBTA at 4 °C. The next day, the coverslips were washed in PBS and incubated with secondary antibodies conjugated to Alexa Fluor 488 (Invitrogen A11001) or/and Alexa Fluor 594 (Invitrogen A11058) (all in dilution 1:1000), washed with PBS [in case of samples containing FLAG-DVL3 WT and derived variants stained with DAPI (1:5000)], and all coverslips were mounted on microscopic slides. Cells were then visualized on an Olympus IX51 fluorescent microscope using ×40 air or ×100 oil objectives and/or an Olympus Fluoview 500 confocal laser scanning microscope IX71 using ×100 oil objective. One hundred positive cells per experiment (n = 3) were analyzed and scored according to their phenotype into two/three categories (punctae/even); or non-recruited/partially/fully recruited for FZD6-dependent recruitment of DVL3. The antibodies used were as follows: anti-FLAG M2 (Sigma-Aldrich, #F1804), anti-DVL3 (Santa Cruz, #sc-8027), anti-CK1ɛ (Santa Cruz, #sc-6471), anti-RFP (Chromotek, #5h9) and anti-GFP (Fitzgerald, #20R-GR-011).

Wnt/β-catenin pathway = experiment: Dual Luciferase TopFlash/Renilla Reporter Assay; format: cell-based, human; settings: Fig 8d
Procedure: Cells were transfected 24 h after seeding with 0.1 μg of Super8X TopFlash construct, 0.1 μg of Renilla luciferase construct, and 0.1 μg of corresponding plasmids per well for 6 h in a 24-well plate. As for the ECFP-DVL3 FIII wt stable cell lines, transfection was followed by 4 h induction of tetracycline (1 µg/ml) and 8 h treatment of CM:DMEM (1:1 ratio). For performing this assay, Promega Dual Luciferase assay kit (Promega, #E1910) was used according to the manufacturer’s instructions. Luminescence was measured by a Hidex Bioscan Plate Chameleon Luminometer. Results are depicted as the ratio of TopFlash and Renilla signal (TopFlash fold induction), which was normalized for each experiment to certain control column (normalized TopFlash fold induction). Data were analyzed by MS Excel 2007 and GraphPad Prism 6 and results were shown as the means ± S.D. (number of experiments indicated ad hoc).

Row | Molecule | Non-recruited (DVL3 membrane recruitment) ([1]; exp1) | Partially recruited (DVL3 membrane recruitment) ([1]; exp1) | Fully recruited (DVL3 membrane recruitment) ([1]; exp2) | Non-recruited (DVL3 membrane recruitment) ([1]; exp2) | Partially recruited (DVL3 membrane recruitment) ([1]; exp2) | Fully recruited (DVL3 membrane recruitment) ([1]; exp3) | Non-recruited (DVL3 membrane recruitment) ([1]; exp3) | Partially recruited (DVL3 membrane recruitment) ([1]; exp3) | TopFlash relative to DVL3 wt (= 1) (Wnt/β-catenin pathway; replicate of grid row r4) | TopFlash relative to DVL3 wt (= 1) (Wnt/β-catenin pathway; replicate of grid row r5) | TopFlash relative to DVL3 wt (= 1) (Wnt/β-catenin pathway; replicate of grid row r6) | TopFlash relative to DVL3 wt (= 1) (Wnt/β-catenin pathway; replicate of grid row r7) | TopFlash relative to DVL3 wt (= 1) (Wnt/β-catenin pathway; replicate of grid row r8) | TopFlash relative to DVL3 wt (= 1) (Wnt/β-catenin pathway; replicate of grid row r9) | TopFlash relative to DVL3 wt (= 1) (Wnt/β-catenin pathway; replicate of grid row r10) | TopFlash relative to DVL3 wt (= 1) (Wnt/β-catenin pathway; replicate of grid row r11) | TopFlash relative to DVL3 wt (= 1) (Wnt/β-catenin pathway; replicate of grid row r12) | TopFlash relative to DVL3 wt (= 1) (Wnt/β-catenin pathway; replicate of grid row r13) | TopFlash relative to DVL3 wt (= 1) (Wnt/β-catenin pathway; replicate of grid row r14) | Fully recruited (DVL3 membrane recruitment) ([1]; exp1)
1 | B1 | 79 | 19 | 11 | 54 | 35 | 16 | 68 | 16 | 0.2512 | 0.4095 | 0.2391 | 0.3021 | 0.4946 | 0.4126 | 0.6059 | 0.4276 | 0.421 | 0.43 | 0.3266 | –
2 | B2 | 52 | 37 | 20 | 49 | 31 | 10 | 60 | 30 | 0.8175 | 1.687 | 1.081 | 0.9973 | 0.619 | 0.5939 | 0.8497 | 1.052 | 1.009 | 1.108 | 1.265 | 11
